Experimental data: patent US20120028894A1

Target: Insulin-Degrading Enzyme (IDE), species not stated (Homo sapiens (Human)) (UniProt P14735)
Test: cell-based or functional assay

## Insulin isolated from bovine pancreas (SIGMA) (from UniProt P01317 85-105; P01317 25-54) (ligand)
  insulin degradation by IDE without inhibitor, 16 hours at 37 C, insulin ELISA (% degradation): 60
